“And” between values parts separate entries of the source, which are not always exact repeats. Identical values can stand only once.
Conditions: Arachis hypogaea, Thermal, DSC, Sodium phosphate 0.05 M, NaCl 0.15 M, transition: 3, reversible: yes, whole UniProt chain shown

B1: Galactose-binding lectin wild type, P02872 (protein)
chain: MKPFCVFLTFFLLLAASSKKVDSAETVSFNFNSFSEGNPAINFQGDVTVLSNGNIQLTNLNKVNSVGRVLYAMPVRIWSSATGNVASFLTSFSFEMKDIKDYDPADGIIFFIAPEDTQIPAGSIGGGTLGVSDTKGAGHFVGVEFDTYSNSEYNDPPTDHVGIDVNSVDSVKTVPWNSVSGAVVKVTVIYDSSTKTLSVAVTNDNGDITTIAQVVDLKAKLPERVKFGFSASGSLGGRQIHLIRSWSFTSTLITTTRRSIDNNEKKIMNMASA
- Tm (pH 5.5): 56.9 °C and 61.2 °C
- unfolding enthalpy (calorimetric) (pH 5.5): 212 kcal/mol and 113 kcal/mol
- Tm (pH 6): 57.5 °C
- unfolding enthalpy (calorimetric) (pH 6): 218 kcal/mol
- Tm (pH 6.5): 58 °C and 62.5 °C
- unfolding enthalpy (calorimetric) (pH 6.5): 225 kcal/mol and 121 kcal/mol
- Tm (pH 7): 58.5 °C
- unfolding enthalpy (calorimetric) (pH 7): 231 kcal/mol
- unfolding enthalpy (van 't Hoff) (pH 7.4): 75.1 kcal/mol and 149 kcal/mol
- Tm (pH 7.8): 60.1 °C and 64.4 °C
- unfolding enthalpy (calorimetric) (pH 7.8): 245 kcal/mol and 132 kcal/mol
- Tm (pH 8.2): 61.2 °C and 65 °C
- unfolding enthalpy (calorimetric) (pH 8.2): 251 kcal/mol and 135 kcal/mol

From FireProtDB (doi:10.1021/bi982828s)
